Consider 78 sequences from the supplement of paper PMC10126150.

The data set deals with ATP. The experiment in a line: switch fluorescence ratio, 500 uM ATP over buffer (Cy3 cluster intensity, sum of 5 cycles each) (fold (ratio)); higher = stronger signal-on switching upon ATP binding; sequences stand for … in TCGTCGGCAGCGTCAGATGTGTATAAGAGACAGTTTTTTTTTTTTTTTTTTTTTTTTT…TC. The following applies: aptamer strand: ATP DNA aptamer (quencher-CACCTGGGGGAGTATTGCGGAGGAAGG + anchor), 100 nM annealed; ATP concentration: 500 uM. A digest of the protocol: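 Values give the fluorescence ratio for each switch-domain sequence, averaged from per-cluster ratios of summed target-cycle to summed buffer-cycle Cy3 intensity. The Cy3-labelled switching-strand clusters sat on a modified Illumina MiSeq flow-cell, were annealed to 100 nM quencher-labelled ATP aptamer, and were imaged in selection buffer, then after 15 min with 500 uM ATP at 22 °C. Five cycles ran with NaOH stripping and re-annealing between them, and clusters outside 100-1000 RFU were excluded.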

± gives the standard deviation of the averaged measurements.
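Also: ATP exposure 15 min at 22 °C before imaging.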

On to GACAGCCGGT, for which the switch fluorescence ratio is 1.01 ± 0.029. For the sequence GGGTTATGAA, the switch fluorescence ratio stood at 0.994 ± 0.022.

Turning to GGGGGGTAGG, the switch fluorescence ratio stood at 1.01 ± 0.029. Take AAATCGTGGA: the switch fluorescence ratio stood at 0.987 ± 0.011. AGAGCAAGGT: the switch fluorescence ratio is 1.08 ± 0.035. Take AAGCTTGGCT: the switch fluorescence ratio was 0.965 ± 0.028. For CGTTTGGAGG, the switch fluorescence ratio stood at 1.03 ± 0.016. The same measure for AATAAATCAT: 0.992 ± 0.024; for TTTTGAGCGA: 1.07 ± 0.051; for AATGGGGTAA: 0.995 ± 0.014.

Take GAAAAAAGGC: the switch fluorescence ratio amounted to 1.03 ± 0.032. Take TTTCTTGTAT: the switch fluorescence ratio was found to be 1.02 ± 0.016.

In the case of GGAATACGAT, the switch fluorescence ratio stood at 1.09 ± 0.16. Consider TGGGGGAGCC, for which the switch fluorescence ratio was found to be 1.03 ± 0.041. As for CAGATATTTC, the switch fluorescence ratio is 1.02 ± 0.021. As for CAAACTGTCA, the switch fluorescence ratio was 1.07 ± 0.06.

Turning to TCCTTAACTT, the switch fluorescence ratio was 1.02 ± 0.061. For the sequence CGAGGGATGG, the switch fluorescence ratio came out at 0.977 ± 0.05. Regarding TAAAAAGCTC, the switch fluorescence ratio was determined as 1.01 ± 0.021. The same measure for CATGTAACGC: 1.04 ± 0.066; for ATGTTTTTGC: 1.04 ± 0.1; for TTGTATCTTC: 0.993 ± 0.041. As for GGTAGTAGAT, the switch fluorescence ratio was found to be 1.01 ± 0.0072. As for TCCCTGGACT, the figure is 1.023 ± 0.0099; as for CGGATGGAGT, 0.99128 ± 1.1e-05. AGTCCGGGAT: the switch fluorescence ratio was found to be 1.07 ± 0.044. On to TAGAATCCG, for which the switch fluorescence ratio was determined as 1.003 ± 0.009. The same measure for AAGGCAAATA: 1.04 ± 0.037; for TTTCGAGAAC: 0.9873 ± 0.0066. Turning to TTTTTGGTCC, the switch fluorescence ratio came out at 0.992 ± 0.011. For the sequence AATTGGGGGT, the switch fluorescence ratio was 0.992 ± 0.038. The same measure for GGTGATACGG: 1.012 ± 0.0022; for GGTAGGCGAA: 0.9775 ± 0.0013.

For CTACGTAATG, the switch fluorescence ratio turned out to be 3.16 ± 0.27. On to GCGGTTGTCG, for which the switch fluorescence ratio is 1.01 ± 0.03. For GAAACCGGAG, the switch fluorescence ratio stood at 1.567 ± 0.015. As to TAAAACGCGG, the switch fluorescence ratio came to 1.07 ± 0.048. As for TTAAAAAAGA, the switch fluorescence ratio came out at 0.998 ± 0.013. The same measure for TTCTCGATCT: 1.03 ± 0.037. The same measure for GTGTTTTAGG: 0.96 ± 0.032. The same measure for GCTAAGCCTG: 1.03 ± 0.017; for TACATATTCG: 0.989 ± 0.041; for TGAATCATGG: 0.972 ± 0.022. With AGTAGGGGTT, the switch fluorescence ratio is 0.979 ± 0.02.

With GGGGGTTTTG, the switch fluorescence ratio was determined as 0.993 ± 0.038.

Turning to AGCGGGGCGC, the switch fluorescence ratio turned out to be 1.01 ± 0.069.

Take TTAATGTT: the switch fluorescence ratio worked out at 1.02 ± 0.018. For TGGTAATGTG, the switch fluorescence ratio stood at 1.01 ± 0.096. As to ATTATTAGGA, the switch fluorescence ratio came out at 1.04 ± 0.088. With ACCTTGAGAG, the switch fluorescence ratio stood at 1 ± 0.011. The same measure for TTGCTTATCG: 1.021 ± 0.0047.

TCACATTTTC: the switch fluorescence ratio was 1.09 ± 0.14. The same measure for AAAGATTTTG: 0.982 ± 0.031; for TTTCTAGTGA: 0.991 ± 0.047; for GCATGCAGGG: 1.01 ± 0.045.

Turning to GAAAAAAAAG, the switch fluorescence ratio stood at 1.07 ± 0.1. As for GATGGAGATA, the switch fluorescence ratio turned out to be 0.936 ± 0.06. The same measure for CACCTTACGT: 1.45 ± 0.079; for GGGGCGAGGT: 0.9974 ± 0.0041.

On to CAAGTCGTTT, for which the switch fluorescence ratio is 1.017 ± 0.0023. As for AAATGGTGTC, the figure is 1.01 ± 0.055; as for TCCGATGGGT, 1.145 ± 0.0095. As for AATGTTTGTA, the switch fluorescence ratio was 0.9936 ± 0.0094. As for TGAGGGGGAC, the switch fluorescence ratio amounted to 1.02 ± 0.087. CAAATATGAG: the switch fluorescence ratio is 0.972 ± 0.033. Turning to CGATCTTGTT, the switch fluorescence ratio is 0.982 ± 0.018. The same measure for ACCCAGAAGG: 1.08 ± 0.043; for CATTTAGGGG: 0.995 ± 0.036. With GGATTAATGT, the switch fluorescence ratio is 0.971 ± 0.022. Turning to AAGTATATGA, the switch fluorescence ratio was 1.004 ± 0.0083.

For the sequence TTGATGATCC, the switch fluorescence ratio worked out at 0.9781 ± 0.0034. AAGACGTAGG: the switch fluorescence ratio is 1.06 ± 0.034.

On to TATGGAAACG, for which the switch fluorescence ratio is 0.981 ± 0.011. Consider CTGGGGGTAT, for which the switch fluorescence ratio was 1 ± 0.03. In the case of ATGAGAACTC, the switch fluorescence ratio worked out at 1.024 ± 0.0051.

Regarding TTAATTTTAG, the switch fluorescence ratio was 0.9764 ± 0.0094. Regarding GTAGACGGGT, the switch fluorescence ratio turned out to be 1.03 ± 0.031.

Turning to TCTCGAGGGG, the switch fluorescence ratio stood at 1 ± 0.019.
